Results from paper PMC12326332.

Columns and labels:
Assay in all cases: SPR; Biacore T200, CM-5 chip with coupled anti-GST nanobody; GST-tagged RNF38 LP variants captured, UBE2D2^S22R or UBE2D2^S22R,C85K–Ub as analyte; 25°C; 25 mM Tris–HCl pH 7.6, 150 mM NaCl, 1 mM DTT, 0.005% Tween-20; one-site binding model; two technical replicates
GST-RNF38^RING-R454G = GST-RNF38^RING-R454G (UniProt Q9H0F5)
GST-RNF38^RING-R454S = GST-RNF38^RING-R454S (UniProt Q9H0F5)
GST-RNF38^RING-R454Y = GST-RNF38^RING-R454Y (UniProt Q9H0F5)
GST-RNF38^RING-R454K = GST-RNF38^RING-R454K (UniProt Q9H0F5)
GST-RNF38^RING-R454P = GST-RNF38^RING-R454P (UniProt Q9H0F5)
GST-RNF38^RING-R454E = GST-RNF38^RING-R454E (UniProt Q9H0F5)
GST-RNF38^RING-WT = GST-RNF38^RING-WT (UniProt Q9H0F5)
GST-RNF38^RING-R454I = GST-RNF38^RING-R454I (UniProt Q9H0F5)
GST-RNF38^RING-R454N = GST-RNF38^RING-R454N (UniProt Q9H0F5)
GST-RNF38^RING-R454C = GST-RNF38^RING-R454C (UniProt Q9H0F5)
GST-RNF38^RING-R454F = GST-RNF38^RING-R454F (UniProt Q9H0F5)
GST-RNF38^RING-R454Q = GST-RNF38^RING-R454Q (UniProt Q9H0F5)
GST-RNF38^RING-R454V = GST-RNF38^RING-R454V (UniProt Q9H0F5)
GST-RNF38^RING-R454H = GST-RNF38^RING-R454H (UniProt Q9H0F5)
GST-RNF38^RING-R454W = GST-RNF38^RING-R454W (UniProt Q9H0F5)
GST-RNF38^RING-R454D = GST-RNF38^RING-R454D (UniProt Q9H0F5)
GST-RNF38^RING-R454A = GST-RNF38^RING-R454A (UniProt Q9H0F5)
GST-RNF38^RING-R454M = GST-RNF38^RING-R454M (UniProt Q9H0F5)
GST-RNF38^RING-R454L = GST-RNF38^RING-R454L (UniProt Q9H0F5)
GST-RNF38^RING-R454T = GST-RNF38^RING-R454T (UniProt Q9H0F5)

| Kd (GST-RNF38^RING-R454G) [µM] | Kd (GST-RNF38^RING-R454S) [µM] | Kd (GST-RNF38^RING-R454Y) [µM] | Kd (GST-RNF38^RING-R454K) [µM] | Kd (GST-RNF38^RING-R454P) [µM] | Kd (GST-RNF38^RING-R454E) [µM] | Kd (GST-RNF38^RING-WT) [µM] | Kd (GST-RNF38^RING-R454I) [µM] | Kd (GST-RNF38^RING-R454N) [µM] | Kd (GST-RNF38^RING-R454C) [µM] | Kd (GST-RNF38^RING-R454F) [µM] | Kd (GST-RNF38^RING-R454Q) [µM] | Kd (GST-RNF38^RING-R454V) [µM] | Kd (GST-RNF38^RING-R454H) [µM] | Kd (GST-RNF38^RING-R454W) [µM] | Kd (GST-RNF38^RING-R454D) [µM] | Kd (GST-RNF38^RING-R454A) [µM] | Kd (GST-RNF38^RING-R454M) [µM] | Kd (GST-RNF38^RING-R454L) [µM] | Kd (GST-RNF38^RING-R454T) [µM] | Substance |
| --- | --- | --- | --- | --- | --- | --- | --- | --- | --- | --- | --- | --- | --- | --- | --- | --- | --- | --- | --- | --- |
| 393 | 153 | 138 | 132 | 245 | 755 | 105 | 111 | 623 | 209 | 173 | 101 | 173 | 200 | 63.1 | 270 | 167 | 139 | 166 | 160 | UBE2D2^S22R (from UniProt P62837 1-147) (enzyme) |
| 91 | 59.5 | 23.8 | 30.2 | 82.7 | 111 | 2.5 | 42 | 106 | 56.5 | 45.4 | 29.2 | 53.9 | 55.7 | 24.3 | 69.8 | 60.4 | 31.2 | 46.7 | 63 | UBE2D2^S22R,C85K–Ub (from UniProt P62837 2-147; P0CG48 1-76) (complex) |
